The results in this text go back to the supplement of paper PMC12764529.

A short description of data set [1]: folding stability dG unfold from chymotrypsin proteolysis; higher = more stable. The method in brief:
(§1)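 Only designs with AlphaFold2 dimer inter-PAE above 15 were retained; each was a mini-protein under 80 residues with no cysteine, in a PA-tagged cDNA display construct. After digestion with trypsin and chymotrypsin and sequencing, K50 was inferred by Bayesian fitting of counts, and unfolding free energy was derived per protease or combined against a sequence-predicted unfolded-state K50 and a shared folded-state K50.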

Data set [2] in a line: folding stability dG unfold (combined trypsin and chymotrypsin); higher = more stable. The method in brief: as §1
Data set [3] can be described thus: folding stability dG unfold from trypsin proteolysis; higher = more stable. The method in brief:
as §1

± gives the half width of the 95% confidence interval.

In the case of “SAGWFVRIEIEPPGEKREIMIPFSWDEARELLKDLGLEVEVDPESPTFEFKLPNYQIKVEFMPIPPGQMSAG [r5_248_TrROS]”, the entries for the “folding stability dG unfold” value in data set [1], in data set [2] and in data set [3] were 3.6 ± 0.049 kcal/mol, 3.21 ± 0.12 kcal/mol and 2.34 ± 0.12 kcal/mol, respectively.
Take “SAGWHEIEIEIMIPFPKENAEELAKEIAEEIARMHGFKITNIEVQVYPTDGEYYVMIPVKIRIPPPNDTSAG [r14_219_TrROS]”: the “folding stability dG unfold” value in data set [1] came to 3.15 ± 0.056 kcal/mol; in data set [2], 3.05 ± 0.11 kcal/mol; in data set [3] it was 2.81 ± 0.061 kcal/mol.
On the same counts, the results for “SAGWRMTIWVQYELPPGMPPERAKEAVRDIIRDIMRRFGLPMPPGMKIDIEPVEPSNDYVYYKVTIEFPSAG [r14_735_TrROS]” are 5.52 ± 0.15 kcal/mol, 5.22 ± 0.33 kcal/mol and 4.37 ± 0.26 kcal/mol.
On the same counts, the results for “SAGYEIVKEIAEELGFPVEIDRIEYDPDHGTIKFTARMRPKDGKKYRVQIMIHVPPENGNVDIELEYVPSAG [r5_929_TrROS]” are 2.6 ± 0.16 kcal/mol, 2.56 ± 0.2 kcal/mol and 2.09 ± 0.074 kcal/mol.
Take “SAGYFIMVKFEFPDGGPQEFMIWIPPDENPEKLTKEEAKEVAKSIANSNQDQGGFEVKDVEIMPPDDMSAGG [r19_27_TrROS]”: the “folding stability dG unfold” value in data set [1] stood at 2.03 ± 0.088 kcal/mol; in data set [2], 1.58 ± 0.15 kcal/mol; in data set [3] it was 0.611 ± 0.1 kcal/mol.
As to “SAGYIRIEKDNDYYKIEFLFPPNDPSLIENLVEAIRQKGWKVKDVEVEVEPNKDGMYRVEIDFKIKPPDSAG [r5_739_TrROS]”, the “folding stability dG unfold” value in data set [1] is 3.31 ± 0.099 kcal/mol; in data set [2] it was 2.88 ± 0.17 kcal/mol; in data set [3], 2.53 ± 0.12 kcal/mol.
The corresponding values for “SAGYVEPYEDGMVKIDSTFFLNDWVFKVDWWIMPNGNIMISIEPIEPIPPPPPVPIDADDPEQKEEAQQSAG [r5_715_TrROS]” are 2.69 ± 0.069 kcal/mol, 2.41 ± 0.23 kcal/mol and 1.69 ± 0.18 kcal/mol.
In the case of “SAIKGMPLEELAKHIENEMRKMHPNVKIKVEIVDVPPDYLVIEVEITVRHPNPGGQQVEFPMTIVIDLDSAG [r14_187_TrROS]”, the “folding stability dG unfold” value stood at 1.5 ± 0.17 kcal/mol in data set [1], 1.81 ± 0.21 kcal/mol in data set [2] and 1.81 ± 0.21 kcal/mol in data set [3].
Turning to “SAISPTERVEATDYKSPNGAVGSTTTFPDPEGSTVSIVREGSTWRLVTVNPDGSVSEREVSPEEAAALLASA [r9_1144_JUSTAS]”, the results for the “folding stability dG unfold” value in data set [1], in data set [2] and in data set [3] were 1.71 ± 0.065 kcal/mol, 1.86 ± 0.067 kcal/mol and 1.89 ± 0.04 kcal/mol, respectively.
On the same counts, the results for “SAKASELLKKLPFEAEIEEGEEFVKIKLKNPFLKNPNVTFEFEIPTKKGKPIKVKVTLTKNGAEKIEPSSAG [r14_401_TrMRF]” are 2.18 ± 0.078 kcal/mol, 2.25 ± 0.34 kcal/mol and 2.57 ± 0.14 kcal/mol.
For the sequence “SAKDIEIEMERTNGYYQMTIKLPGKGYEISVWMPGDQYEISVQPPKNPDEVETIPFTVPEIKDALIDALSAG [r14_716_TrROS]”, the entries for the “folding stability dG unfold” value in data set [1], in data set [2] and in data set [3] were 1.26 ± 0.16 kcal/mol, 1.18 ± 0.3 kcal/mol and 0.519 ± 0.12 kcal/mol, respectively.
On the same counts, the results for “SAKEEEKKKKKEKKKPKPKTVEITVYINGKKIKKIKFNKKTKKITITLENGKKITIPPGMSLEEILKKLSAG [r14_59_TrROS_Hall]” are 3.37 ± 0.1 kcal/mol, 2.88 ± 0.24 kcal/mol and 2.16 ± 0.16 kcal/mol.
Regarding “SAKIKVEIVEIDEKTGTIKIKAEIELPDGTKIELEATIKIEPVEVEKKEVTDKNGKKITVTKIKIKLPEKSA [r9_610_TrROS_Hall]”, the “folding stability dG unfold” value in data set [1] amounted to 2.52 ± 0.24 kcal/mol; in data set [2], 2.59 ± 0.71 kcal/mol; in data set [3] it was 2.05 ± 0.5 kcal/mol.
In the case of “SAKITKIEINEDGTLTITIEVELPEGMEADELVIFVEVDGKIYEATIKKDGTVEIKLKNIKDLKIYIFKKSA [r9_722_TrROS_Hall]”, the “folding stability dG unfold” value in data set [1] worked out at 5.04 ± 0.12 kcal/mol; in data set [2], 4.95 ± 0.16 kcal/mol; in data set [3] it was 3.87 ± 0.28 kcal/mol.
In the case of “SAKKKKPLPKIKKIKITITLKDGTKIEMEITKVEVLEDGTVKIKMKMKVIDKKTKKKYEFEIEIIIKLKSAG [r14_591_TrROS_Hall]”, the “folding stability dG unfold” value was found to be 3.28 ± 0.17 kcal/mol in data set [1], 3.27 ± 0.21 kcal/mol in data set [2] and 2.96 ± 0.27 kcal/mol in data set [3].
On the same counts, the results for “SAKKKVVELEIEIEVPPEDLTEEELKEKVLEALRKLFPDLKIKKIEIEVRVERKEDGSLKVTVKIKIEPSAG [r14_145_TrROS_Hall]” are 2.01 ± 0.14 kcal/mol, 2.65 ± 0.28 kcal/mol and 3.03 ± 0.13 kcal/mol.
Regarding “SAKKKVVVEIEIPKEDMSKEEVKEALREAAKELGLELPEEEIEKLVEEARKKGLSIEEVLRKLKEEGLLSAG [r14_364_TrROS_Hall]”, the “folding stability dG unfold” value in data set [1] was 1.47 ± 0.054 kcal/mol; in data set [2], 1.12 ± 0.12 kcal/mol; in data set [3], 0.693 ± 0.056 kcal/mol.
With “SAKKLDIKVDGIQRPENNVMILIRIDPGLPPEKDVTITIKGKNGHKQEIPYENDHIYIMVPAQDITIKISAG [r14_350_TrROS]”, the “folding stability dG unfold” value in data set [1] was 2.68 ± 0.045 kcal/mol; in data set [2] it was 2.25 ± 0.34 kcal/mol; in data set [3], 1.8 ± 0.077 kcal/mol.
The corresponding values for “SAKKVKPIAKLTITDENGNTYEITVTVKEVDGKLVVEAEVYNKDGELVARVTAVFDNGKLVAVSIELLPSAG [r14_828_TrROS_Hall]” are 3.03 ± 0.072 kcal/mol, 2.8 ± 0.17 kcal/mol and 2.11 ± 0.13 kcal/mol.
On the same counts, the results for “SAKMKLPEGAKPIAEKDGITIVEVPNKVIIRVRLPDGKEVTLTFPKSDLEEIEALIRELKDAGIEEIEFSAG [r14_12_TrROS_Hall]” are 0.762 ± 0.12 kcal/mol, 0.815 ± 0.07 kcal/mol and 0.876 ± 0.024 kcal/mol.
On the same counts, the results for “SAKMTAEELAKKLAEELAKKLGVKVKVEVEVKVEEKDGKLVIEVKIKVYNENGELIEEIKIEIVLPKEESAG [r14_708_TrROS_Hall]” are 3.84 ± 0.26 kcal/mol, 3.51 ± 0.28 kcal/mol and 2.92 ± 0.35 kcal/mol.
As to “SAKPKVIAEITIYNKETGKVVRITLTDEALEEAKKKGLKEVKLTVEIEVVNPDGSKKTFKMEITLKVEDSAG [r14_100_TrROS_Hall]”, the “folding stability dG unfold” value in data set [1] turned out to be 4.08 ± 0.17 kcal/mol; in data set [2], 3.96 ± 0.26 kcal/mol; in data set [3], 2.77 ± 0.26 kcal/mol.
The corresponding values for “SAKPPVIVIRIEKKEDGTYRVTIEVDGKEIEIEVPEGTSLEEILKKLAEELGVEVEVVEVKDGYLVIKPSAG [r14_404_TrROS_Hall]” are 2.88 ± 0.092 kcal/mol, 2.84 ± 0.26 kcal/mol and 2.82 ± 0.2 kcal/mol.
Take “SAKTIPINIWGPLGDMDRMAEEIARMIARKLGLPANLKKIKIKFTEIEPWPDPDGKPRWVRMSIEIKVKSAG [r14_736_TrROS]”: the “folding stability dG unfold” value in data set [1] came out at 3.61 ± 0.095 kcal/mol; in data set [2] it was 3.45 ± 0.19 kcal/mol; in data set [3] it was 3.55 ± 0.06 kcal/mol.
The corresponding values for “SAKVKISIEFDKKTNKVTIKVKYKGDKEKEKEITLSLEELQKKLGKPLSLEEIIKLLKEKGIDEVEIYPSAG [r14_809_TrROS_Hall]” are 4.26 ± 0.093 kcal/mol, 4.06 ± 0.15 kcal/mol and 3.44 ± 0.14 kcal/mol.
On the same counts, the results for “SALDAKEIAEEFMKKFPPNFRDITVDVENTGNKRKIKIMFRMPNRYWTQEFDLDDGKIEIEPINPGQPLSAG [r14_737_TrROS]” are 0.368 ± 0.15 kcal/mol, 0.672 ± 0.066 kcal/mol and 0.862 ± 0.091 kcal/mol.
Turning to “SALEANIKKAEELAKPEEKVPEFPVKVGDLYIKSVRFFPSTKKVVLFLPNGEKIEADPNVTLEEILKAISAG [r14_59_TrMRF]”, the “folding stability dG unfold” value in data set [1] is 0.254 ± 0.13 kcal/mol; in data set [2], 0.51 ± 0.15 kcal/mol; in data set [3], 0.759 ± 0.075 kcal/mol.
On the same counts, the results for “SALGEEEVLRALKAAAAPLPKVEPVLRKVTVLVPETGEPFEVEVLAYRLENGEIFPVPAEATEALAEALASA [r9_1056_TrMRF]” are -0.1 ± 0.41 kcal/mol, -0.274 ± 0.19 kcal/mol and -0.549 ± 0.36 kcal/mol.
For “SALLENGGIFISINLEWDPEYNWIRIKRFTIYWNGKVIATQPQWIPVPPPPPPPPPEREYNPNDPDNNKSAG [r14_571_TrROS]”, the “folding stability dG unfold” value worked out at 5.06 ± 0.085 kcal/mol in data set [1], 4.56 ± 0.16 kcal/mol in data set [2] and 3.19 ± 0.19 kcal/mol in data set [3].
For the sequence “SALPALLEAAEAGESGTFIPIVADPEAAAVLRAVLERLGFTLVSEEPVPAGARPVFVGVYYFDPVSGRNRSA [r9_498_TrMRF]”, the “folding stability dG unfold” value was determined as 2.38 ± 0.17 kcal/mol in data set [1], 1.84 ± 0.091 kcal/mol in data set [2] and 1.1 ± 0.047 kcal/mol in data set [3].
The corresponding values for “SALPPEVVRKLALDALRALYPDEPFVPVSMEVDPETGEVTVLVARPGPDDSLRLVRRTFRVLDDGRVLGSAG [r14_183_TrMRF]” are 3.07 ± 0.071 kcal/mol, 2.98 ± 0.062 kcal/mol and 2.8 ± 0.067 kcal/mol.
“SALPPGAPPKPERLVLTLTVSEEEVKKGDLEKVRRLVEELVEALREAGFEVKEVEVVEEDGKLTVRIVLDSA [r9_75_TrROS_Hall]”: the entries for the “folding stability dG unfold” value in data set [1], in data set [2] and in data set [3] were 2.68 ± 0.17 kcal/mol, 2.92 ± 0.36 kcal/mol and 3.04 ± 0.26 kcal/mol, respectively.
The corresponding values for “SALPYEVEKTSETFLPEEGLTVTEYKITLPDGSELYRRETFDPKTGVRTVTVYDPNGKKLETRTFTVPPSAG [r14_759_JUSTAS]” are 2.49 ± 0.048 kcal/mol, 2.4 ± 0.046 kcal/mol and 2.19 ± 0.038 kcal/mol.
As to “SALTLEIELEFELEDGYRVTVRARLEFDPETNELTIEVEVRIEPLPPPPPPPETVLVKDENGNWHPLEDLSA [r9_898_TrROS_Hall]”, the “folding stability dG unfold” value in data set [1] amounted to 3.44 ± 0.16 kcal/mol; in data set [2], 3.27 ± 0.15 kcal/mol; in data set [3] it was 3.22 ± 0.14 kcal/mol.
“SALVPIKGKYPVYEMRPEKDPNGNMKPEMRPVKVPIEFPFVVIDPENGKWVPADDIDPEDGRLVAPGLISAG [r14_122_TrROS]”: the “folding stability dG unfold” value in data set [1] is -0.25 ± 0.045 kcal/mol; in data set [2], 0.598 ± 0.064 kcal/mol; in data set [3], 1.14 ± 0.051 kcal/mol.
